± gives the uncertainty stated by the source.
Test: self-splicing fitness, log relative to wild type (ln ratio); higher = more splicing; Tetrahymena group I intron in knt gene, E. coli kanamycin selection, DiMSum; sequences stand for … in CUCUCU…GGAGGGAAAAGUUAUCAGGCAUGCACCUGGUAGCUAGUCUUUAAACCAAUAGAUUGCAUCGGUUUAAAAGGCAAGACCGUCAAAUUGCGGGAAAGGGGUCAACAGCCGUUCAGUACCAAGUCUCAGGGGAAACUUUGAGAUGGCCUUGCAAAGGGUAUGGUAAUAAGCUGACGGACAUGGUCCUAACCACGCAGCCAAGUCCUAAGUCAACAGAUCUUCUGUUGAUAUGGAUGCAGUUCACAGACUAAAUGUCGGUCGGGGAAGAUGUAUUCUUCUCAUAAGAUAUAGUCGGACCUCUCCUUAAUGGGAGCUAGCGGAUGAAGUGAUGCAACACUGGAGCCGCUGGGAACUAAUUUGUAUGCGAAAGUAUAUUGAUUAGUUUUGGAGUACUCGUGGUCG
How it was run: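 DiMSum derived fitness as the error-weighted combination of fold changes across replicates, kanamycin versus no kanamycin, normalised to wild type. E. coli BL21(DE3) held the library, which randomised all eight P1ex-region intron nucleotides within the knt kanamycin-resistance gene on pET-22b(+). Six replicate transformations grew overnight at 37°C or 30°C on LB agar with or without 25 μg/mL kanamycin, also containing 100 μg/mL carbenicillin, 50 μM IPTG and 0.2% rhamnose, and pooled colonies were amplicon-sequenced on an Illumina HiSeq 2500.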

## GCCGAGCAAUAUUACGGCGG
30 °C
  self-splicing fitness (ln): -2.62 ± 0.21
37 °C
  self-splicing fitness (ln): -1.91 ± 0.3

## UAAGAGCAAUAUUACGUUCC
37 °C
  self-splicing fitness (ln): -1.98 ± 0.39

## CGACAGCAAUAUUACGGUGG
30 °C
  self-splicing fitness (ln): -1.73 ± 0.097
37 °C
  self-splicing fitness (ln): -0.756 ± 0.1

## UCCGAGCAAUAUUACGAGAA
30 °C
  self-splicing fitness (ln): -1.91 ± 0.35
37 °C
  self-splicing fitness (ln): -2.27 ± 0.38

## CGUUAGCAAUAUUACGGGGA
37 °C
  self-splicing fitness (ln): -2.28 ± 0.3

## AUCAAGCAAUAUUACGGCAG
30 °C
  self-splicing fitness (ln): -1.58 ± 0.085
37 °C
  self-splicing fitness (ln): -1.55 ± 0.12

## CGUUAGCAAUAUUACGGUCA
30 °C
  self-splicing fitness (ln): -0.526 ± 0.14
37 °C
  self-splicing fitness (ln): -0.197 ± 0.14

## CGUGAGCAAUAUUACGAGCU
30 °C
  self-splicing fitness (ln): -2.79 ± 0.17
37 °C
  self-splicing fitness (ln): -2.99 ± 0.25

## GAAGAGCAAUAUUACGAUGG
30 °C
  self-splicing fitness (ln): -3.18 ± 0.17
37 °C
  self-splicing fitness (ln): -2.1 ± 0.23

## GGAAAGCAAUAUUACGUUGC
30 °C
  self-splicing fitness (ln): -4.27 ± 0.35
37 °C
  self-splicing fitness (ln): -2.2 ± 0.26

## GUCAAGCAAUAUUACGGCAG
37 °C
  self-splicing fitness (ln): -2.86 ± 0.29

## AACCAGCAAUAUUACGGUGG
30 °C
  self-splicing fitness (ln): -2.33 ± 0.086
37 °C
  self-splicing fitness (ln): -1.44 ± 0.1

## GCUUAGCAAUAUUACGGAUA
30 °C
  self-splicing fitness (ln): -2.7 ± 0.39
37 °C
  self-splicing fitness (ln): -1.71 ± 0.31

## CAAGAGCAAUAUUACGAAUC
30 °C
  self-splicing fitness (ln): -3.46 ± 0.41
37 °C
  self-splicing fitness (ln): -1.26 ± 0.38

## CUAGAGCAAUAUUACGUUUU
30 °C
  self-splicing fitness (ln): -3.96 ± 0.2
37 °C
  self-splicing fitness (ln): -3.8 ± 0.25

## UGCUAGCAAUAUUACGGGUG
30 °C
  self-splicing fitness (ln): -1.79 ± 0.098
37 °C
  self-splicing fitness (ln): -1.3 ± 0.11

## UCUGAGCAAUAUUACGGGAU
30 °C
  self-splicing fitness (ln): -2.35 ± 0.18
37 °C
  self-splicing fitness (ln): -2.54 ± 0.24

## UAACAGCAAUAUUACGGCUC
30 °C
  self-splicing fitness (ln): -1.77 ± 0.1
37 °C
  self-splicing fitness (ln): -0.836 ± 0.14

## CAUUAGCAAUAUUACGUUCG
30 °C
  self-splicing fitness (ln): 0.151 ± 0.084
37 °C
  self-splicing fitness (ln): 0.359 ± 0.093

## UGAAAGCAAUAUUACGUAAU
30 °C
  self-splicing fitness (ln): -3.71 ± 0.14
37 °C
  self-splicing fitness (ln): -0.793 ± 0.11

## AGCCAGCAAUAUUACGUUAG
30 °C
  self-splicing fitness (ln): -3.07 ± 0.14
37 °C
  self-splicing fitness (ln): -2.28 ± 0.16

## ACAAAGCAAUAUUACGACUG
30 °C
  self-splicing fitness (ln): -0.48 ± 0.06
37 °C
  self-splicing fitness (ln): -0.066 ± 0.09

## AACGAGCAAUAUUACGCAAC
30 °C
  self-splicing fitness (ln): -2.01 ± 0.21
37 °C
  self-splicing fitness (ln): -1.94 ± 0.44

## AAAUAGCAAUAUUACGGUUU
30 °C
  self-splicing fitness (ln): -1.3 ± 0.059
37 °C
  self-splicing fitness (ln): -0.657 ± 0.076

## ACGGAGCAAUAUUACGGGCA
30 °C
  self-splicing fitness (ln): -2.06 ± 0.42

## UUGUAGCAAUAUUACGAGAU
30 °C
  self-splicing fitness (ln): -2.41 ± 0.33
37 °C
  self-splicing fitness (ln): -2.32 ± 0.31

## UCGCAGCAAUAUUACGCAGG
30 °C
  self-splicing fitness (ln): -3.59 ± 0.2
37 °C
  self-splicing fitness (ln): -2.2 ± 0.19

## GGGCAGCAAUAUUACGCGUA
30 °C
  self-splicing fitness (ln): -0.501 ± 0.077
37 °C
  self-splicing fitness (ln): -0.0324 ± 0.077

## AUCAAGCAAUAUUACGUGUU
30 °C
  self-splicing fitness (ln): -3.23 ± 0.11
37 °C
  self-splicing fitness (ln): -1.58 ± 0.097

## AGCAAGCAAUAUUACGAUUC
30 °C
  self-splicing fitness (ln): -2.18 ± 0.13
37 °C
  self-splicing fitness (ln): -1.04 ± 0.15

## GUGCAGCAAUAUUACGAUCG
30 °C
  self-splicing fitness (ln): -1.95 ± 0.12
37 °C
  self-splicing fitness (ln): -1.45 ± 0.1

## GCUGAGCAAUAUUACGCAAC
30 °C
  self-splicing fitness (ln): -2.18 ± 0.24
37 °C
  self-splicing fitness (ln): -2.11 ± 0.37

## UACUAGCAAUAUUACGGCAC
30 °C
  self-splicing fitness (ln): -2.77 ± 0.19
37 °C
  self-splicing fitness (ln): -1.73 ± 0.2

## CGCGAGCAAUAUUACGGCAG
30 °C
  self-splicing fitness (ln): -0.761 ± 0.1
37 °C
  self-splicing fitness (ln): -0.243 ± 0.13

## GAUUAGCAAUAUUACGCCCU
30 °C
  self-splicing fitness (ln): -0.409 ± 0.49

## UUCGAGCAAUAUUACGGGCG
30 °C
  self-splicing fitness (ln): -2.45 ± 0.2
37 °C
  self-splicing fitness (ln): -1.01 ± 0.18

## UUUAAGCAAUAUUACGGCAA
30 °C
  self-splicing fitness (ln): -0.171 ± 0.093
37 °C
  self-splicing fitness (ln): 0.00377 ± 0.11

## CGCGAGCAAUAUUACGAUCU
30 °C
  self-splicing fitness (ln): -3.42 ± 0.21
37 °C
  self-splicing fitness (ln): -1.66 ± 0.14

## ACAAAGCAAUAUUACGUUAU
30 °C
  self-splicing fitness (ln): -2.81 ± 0.089
37 °C
  self-splicing fitness (ln): -1.5 ± 0.089

## UUUGAGCAAUAUUACGCUUU
37 °C
  self-splicing fitness (ln): -1.59 ± 0.22

## GCACAGCAAUAUUACGCCUG
30 °C
  self-splicing fitness (ln): -1.28 ± 0.087
37 °C
  self-splicing fitness (ln): -0.89 ± 0.1

## AGAUAGCAAUAUUACGUACC
30 °C
  self-splicing fitness (ln): -0.423 ± 0.13
37 °C
  self-splicing fitness (ln): 0.0629 ± 0.14

## CUGUAGCAAUAUUACGCGUG
30 °C
  self-splicing fitness (ln): -1.41 ± 0.1
37 °C
  self-splicing fitness (ln): -0.0484 ± 0.12

## GGAUAGCAAUAUUACGUCAG
30 °C
  self-splicing fitness (ln): -2.87 ± 0.12
37 °C
  self-splicing fitness (ln): -2.12 ± 0.23

## CCGGAGCAAUAUUACGGGUU
30 °C
  self-splicing fitness (ln): -3.85 ± 0.39
37 °C
  self-splicing fitness (ln): -2.67 ± 0.37

## CGUGAGCAAUAUUACGCGGG
30 °C
  self-splicing fitness (ln): -1.74 ± 0.25

## UGAUAGCAAUAUUACGGCAC
30 °C
  self-splicing fitness (ln): -2.97 ± 0.33
37 °C
  self-splicing fitness (ln): -1.51 ± 0.43

## GUUAAGCAAUAUUACGCCUC
30 °C
  self-splicing fitness (ln): -1.41 ± 0.25
37 °C
  self-splicing fitness (ln): 0.196 ± 0.31

## UUCAAGCAAUAUUACGUGGG
30 °C
  self-splicing fitness (ln): -3.07 ± 0.11
37 °C
  self-splicing fitness (ln): -1.97 ± 0.13

## GAUUAGCAAUAUUACGAUUA
30 °C
  self-splicing fitness (ln): -0.22 ± 0.1
37 °C
  self-splicing fitness (ln): -0.0882 ± 0.092

## AACGAGCAAUAUUACGCCGU
30 °C
  self-splicing fitness (ln): -3.6 ± 0.18
37 °C
  self-splicing fitness (ln): -1.88 ± 0.16

## UUAGAGCAAUAUUACGCGUC
30 °C
  self-splicing fitness (ln): -2.56 ± 0.29

## AAAAAGCAAUAUUACGAGCC
30 °C
  self-splicing fitness (ln): -2.31 ± 0.2
37 °C
  self-splicing fitness (ln): -1.28 ± 0.27

## GGAAAGCAAUAUUACGACGA
30 °C
  self-splicing fitness (ln): -0.602 ± 0.13
37 °C
  self-splicing fitness (ln): 0.0265 ± 0.16

## UUAGAGCAAUAUUACGAGAA
30 °C
  self-splicing fitness (ln): -1.75 ± 0.17
37 °C
  self-splicing fitness (ln): -0.981 ± 0.21

## CCCAAGCAAUAUUACGGAAU
30 °C
  self-splicing fitness (ln): -3.88 ± 0.26
37 °C
  self-splicing fitness (ln): -2.94 ± 0.22

## CCGGAGCAAUAUUACGAACC
37 °C
  self-splicing fitness (ln): -1.97 ± 0.41

## CUCCAGCAAUAUUACGACUA
30 °C
  self-splicing fitness (ln): -2.47 ± 0.21
37 °C
  self-splicing fitness (ln): -2.53 ± 0.29

## CCUCAGCAAUAUUACGGGUG
30 °C
  self-splicing fitness (ln): -2.04 ± 0.06
37 °C
  self-splicing fitness (ln): -0.955 ± 0.07

## UUGCAGCAAUAUUACGACGG
30 °C
  self-splicing fitness (ln): -0.213 ± 0.076
37 °C
  self-splicing fitness (ln): 0.395 ± 0.11

## ACCUAGCAAUAUUACGGUGC
30 °C
  self-splicing fitness (ln): -1.87 ± 0.074
37 °C
  self-splicing fitness (ln): -0.926 ± 0.092

## GUGUAGCAAUAUUACGAUGA
30 °C
  self-splicing fitness (ln): -1.16 ± 0.087
37 °C
  self-splicing fitness (ln): -0.756 ± 0.094

## CCUCAGCAAUAUUACGGGCC
30 °C
  self-splicing fitness (ln): -4.31 ± 0.3
37 °C
  self-splicing fitness (ln): -2.77 ± 0.36
